Experimental data as given in paper PMC11863921 (BMC Biology, 2025).

How the values were obtained:
[1] = target: modified ArubRXFP/LGR3 (N-terminal region with the predicted internal signal peptide replaced by the prolactin precursor signal peptide) (Asterias rubens)
[2] = target: Asterias rubens relaxin family peptide receptor/leucine-rich repeat G protein-coupled receptor 3 (isoform X2) (Asterias rubens)
[3] = target: Acanthaster cf. solaris relaxin family peptide receptor/leucine-rich repeat G protein-coupled receptor 3, N-terminally modified (prolactin signal peptide, FLAG tag) (Acanthaster cf. solaris)
AsolRXFP/LGR3 = target: T1, AsolRXFP/LGR3 (Acanthaster planci, UniProt A0A8B7XXQ8); assay: CRE reporter gene assay in CHO cells stably expressing AsolRXFP/LGR3; type: cell-based, A. cf. solaris; conditions: CHO-AsolRXFP/LGR3 cells, increasing concentrations
T1 sequence (A0A8B7XXQ8 1-847): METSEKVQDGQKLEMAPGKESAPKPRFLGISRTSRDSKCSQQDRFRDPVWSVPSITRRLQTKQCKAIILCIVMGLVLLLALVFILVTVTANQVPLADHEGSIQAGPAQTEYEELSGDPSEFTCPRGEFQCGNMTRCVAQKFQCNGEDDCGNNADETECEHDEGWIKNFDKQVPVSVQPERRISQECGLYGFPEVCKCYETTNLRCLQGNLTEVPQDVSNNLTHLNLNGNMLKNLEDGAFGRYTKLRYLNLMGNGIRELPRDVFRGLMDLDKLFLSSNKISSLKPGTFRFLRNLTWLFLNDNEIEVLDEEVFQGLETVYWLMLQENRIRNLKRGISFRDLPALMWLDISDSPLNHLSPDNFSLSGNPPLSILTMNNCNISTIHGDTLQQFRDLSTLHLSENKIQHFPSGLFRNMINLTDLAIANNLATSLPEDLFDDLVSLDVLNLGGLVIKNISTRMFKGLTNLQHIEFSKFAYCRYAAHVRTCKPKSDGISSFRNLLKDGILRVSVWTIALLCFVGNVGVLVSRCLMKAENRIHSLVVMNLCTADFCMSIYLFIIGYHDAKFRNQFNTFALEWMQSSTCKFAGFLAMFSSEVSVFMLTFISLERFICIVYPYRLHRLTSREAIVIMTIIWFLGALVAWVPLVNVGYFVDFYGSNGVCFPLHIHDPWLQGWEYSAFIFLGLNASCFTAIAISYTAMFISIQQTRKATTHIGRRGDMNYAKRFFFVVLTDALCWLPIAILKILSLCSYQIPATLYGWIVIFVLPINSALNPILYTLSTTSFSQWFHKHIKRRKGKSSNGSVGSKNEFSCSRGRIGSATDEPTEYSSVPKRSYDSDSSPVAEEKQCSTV
Protocol: Human embryonic kidney (HEK) 293T cells were grown in complete Dulbecco’s modified Eagle medium (DMEM; Gibco) and Chinese hamster ovary (CHO) cells in complete DMEM/F12 (Gibco). Media was supplemented with 10% fetal bovine serum, 1% penicillin/streptomycin, and 1% L‐glutamine (complete media; All from Gibco). HEK-293T cells were transfected with LipofectAMINE 2000 (Invitrogen) and CHO cells with CHO TransIT and CHO-Mojo (Mirus), both according to the manufacturer’s instructions.
CHO and HEK293T cells stably expressing AsolRXFP/LGR3 were generated by lentiviral transduction. HEK293T cells were plated in 10 cm dishes for transfection with pLenti X1-Ef1α-COT-RXFP-like 2-IRES-GFP along with the lentiviral packaging and envelope plasmids pMDL, pRSV‐Rev, and pCMV‐VSV‐G, using Lipofectamine 2000. The following day, media containing lentivirus was harvested and filtered through a 0.45 μm syringe filter. Fresh CHO and HEK293T cells in 10 cm plates were transduced by replacing the cell culture media with the filtered media containing lentivirus, mixed with 4 μg/mL hexadimethrine bromide (Polybrene) to increase transduction efficiency. Three rounds of transduction were performed over 32 h, before cells were allowed to recover for three days in complete media. Transduced cells were sorted from non-transduced cells using the GFP reporter by fluorescence-activated cell sorting (FACS), using a Becton Dickinson FACSAria III as previously described. Single, live cells with low GFP expression were selected to represent low AsolRXFP/LGR3 expression and were subsequently grown to confluency in a T175 flask and cryopreserved.
The ability of the A. cf. solaris receptors to respond to A. cf. solaris RGP1 and RGP2 peptides was tested using a pCRE β-galactosidase reporter gene assay in CHO cells stably expressing AsolRXFP/LGR3 or HEK-293T cells transfected with AsolRXFP/LGR4 (long) or AsolRXFP/LGR4 (short), as described in detail previously. Importantly, the pCRE β-galactosidase reporter gene assay measures both Gs and Gq activation downstream of GPCR activation by monitoring CREB-mediated gene transcription. Cells were seeded in 96 well plates and were left to grow overnight at 37 °C in an incubator with 5% CO2. The next day the cells were transfected with different amounts of the pCRE reporter gene DNA [57] and/or pcDNA3.1 receptor constructs, as described above, and were left to grow overnight in an incubator. Triplicate wells in each plate were transfected with the equivalent amount of pCRE reporter gene DNA and pcDNA3.1 without a receptor-encoding insert as the background CRE activity control. The next day cells were exposed in triplicate wells to increasing concentrations of peptides diluted in media for 6 h at 37 °C in an incubator. Triplicate parallel wells contained 5 µM forskolin and blank media as positive and negative controls, respectively. At the end of the incubation period, the media was aspirated, and the plate was stored at − 80 °C until development. Plates were thawed for the development of β-galactosidase activity, as described previously, with absorbance being read at 570 nm on an Epoch 2 microplate reader. The data were analyzed as the percentage of the response induced by 5 µM forskolin and pooled followed by fitting to a three-parameter sigmoidal dose–response curve using GraphPad Prism 10. Experiments were performed at least three times with triplicate determinations in each assay (Additional file 17: Dataset S10).

[4] = test system: ovarian fragments of A. cf. solaris; assay: In vitro spawning assay with ovarian fragments of A. cf. solaris; conditions: 1 h, semi-quantitative
From the text: Adult A. cf. solaris were collected from the Great Barrier Reef by Pacific Marine Group divers associated with the Great Barrier Reef Marine Park Authority (GBRMPA) before being transported to the University of the Sunshine Coast aquarium facility. Animals were briefly maintained in a re-circulating protein-skimmed and aerated saltwater system of approximately 1500 L. The animals used were approximately 25–55 cm in diameter and kept unfed for the duration of the experiment. The gender and ovarian maturation stage was determined by using a minor gonad tissue biopsy technique and, thereafter, animals were individually segregated in a flowthrough aerated tank filled with approximately 55 L of filtered seawater for a minimum of 24 h to recover and acclimatize.
AsoRGP1 and AsoRGP2 were synthesized as described previously. In addition, a modified form of AsoRGP2 was synthesized in which the N-terminal residue of the A-chain (glutamine, Q) was substituted with pyroglutamate (pQ), recognizing the possibility of this potential post-translational modification. […] In vitro spawning assays using ovarian fragments were performed following procedures described previously. In brief, the ovaries were excised and cut using scissors into small fragments containing only a few lobes. The ovarian fragments were then incubated in artificial seawater containing RGP-type peptides at a range of concentrations (2 × 10^−10–2 × 10^−6 M) for 1 h. As a control experiment, ovarian fragments were incubated in artificial seawater alone. The samples were examined to determine whether or not in vitro spawning had occurred and were scored as follows: (+ + +) spawning occurred and most oocytes had matured; (+ +) about 50% of oocytes had matured, ( +) a few oocytes had matured and ( −): no spawning occurred. […] Means ± standard error of mean (SEM) were determined from four separate assays using ovaries from four different animals.

Substance: Asterias rubens relaxin-like gonad-stimulating peptide 2 (ligand)
- EC50 of peptide-induced luminescence (GFP-apoaequorin G5A, chimeric G-protein GqS5) in CHO-K1 cells transfected with modified ArubRXFP/LGR3 [1]: 0.51 µM
- EC50 of peptide-induced luminescence (GFP-apoaequorin G5A, chimeric G-protein GqS5) in CHO-K1 cells transfected with ArubRXFP/LGR3, 10^-14 to 10^-5 M [2]: 0.383 µM

Substance: Acanthaster cf. solaris relaxin-like gonad-stimulating peptide 1 (ligand)
- pEC50 of CRE reporter gene activation in CHO-AsolRXFP/LGR3 cells [3]: 7.8 pEC50
- potency (EC50) of CRE reporter gene activation in CHO-AsolRXFP/LGR3 cells [3]: 0.016 µM

Substance: recombinant human relaxin-2 [H2 relaxin, reference compound]
- cAMP activity / CRE reporter gene activation (AsolRXFP/LGR3): No response

Substance: Acanthaster cf. solaris Relaxin-like gonad-stimulating peptide 2 modified with pyroglutamate replacing glutamine at the N-terminus of the A-chain [Asol-pQ-RGP2]
- relative potency in inducing shedding of mature eggs / spawning ([4]; compared with RGP1 or unmodified RGP2): less potent than AsolRGP1 and AsolRGP2
- relative potency in inducing shedding of mature eggs / spawning ([4]; compared with RGP1 or unmodified RGP2, listed as Asol-pQ-RGP): less potent than unmodified AsolRGP2
